This note sets out measurements from patent CN111732659A.

Assay [1] concerns the target GPC3ΔGPI-FLAG重组蛋白 (Homo sapiens (Human)) (UniProt P51654). Description: ELISA on coated GPC3ΔGPI-FLAG after serum incubation of the antibody. For orientation: ELISA stands for enzyme-linked immunosorbent assay.
In assay [2] the target is mCherry-GPC3 (stably expressed on HEK293T cells) (UniProt P51654). Put plainly: immunofluorescence colocalisation on HEK293T cells expressing mCherry-GPC3, confocal microscopy.

Turning to HN3-hFc融合抗体 (Fc fusion), the decrease of antigen binding (ELISA OD450) after 72 h at 37°C in FBS against 0 h in assay [1] was found to be 55.5%.

B1: 纳米抗体G64 (G64-His) (VHH, not shown: small tags and cut ends)
VHH: QVQLVESGGALVQPGGSLRLSCAASGRGADTLSLRWYRQAPGKEREWVCGISWLMTTYSYEDSVKGRFTCSRDDARNTVYLQLNSLKPEDTAVYYCASRPRFLEEQLQVSSYWGQGTQVTVSS
For B1, the 皮尔森相关系数 (mCherry and Alexa Fluor 488 signals) in assay [2] came to 0.803. Moreover, the decrease of antigen binding (ELISA OD450) after 72 h at 37°C in FBS against 0 h in assay [1] was found to be 0.6%.
